# Target: epidermal growth factor receptor (EGFr) (human (endogenous in human breast tumours)) (UniProt P00533)
# Experiment: radioligand binding; labelled EGF on membrane protein of human breast tumours; multipoint Scatchard analyses and 2 point assays; saturation assay with 1 nM labelled EGF, 100 ug membrane protein, 100 nM unlabelled EGF for non-specific binding, volume 400 ul with buffer; constant of the high affinity site (2 binding sites found)
substance,measurement,value
"epidermal growth factor (EGF), labelled (from UniProt P01132 977-1029) (ligand)","KD, high affinity site",0.3 to 0.6 nM
